Experimental data published in patent US20180298098A1 (VAR2 PHARMACEUTICAL, published 2018).

B1: VAR2CSA ID1-DBL2Xb, 3D7 (Baculo) (other)
chain: NYIKGDPYFAEYATKLSFILNSSDANNPSEKIQKNNDEVCNCNESGIASVEQEQISDPSSNKTCITHSSIKANKKKVCKHVKLGVRENDKDLRVCVIEHTSLSGVENCCCQDFLRILQENCSDNKSGSSSNGSCNNKNQEACEKNLEKVLASLTNCYKCDKCKSEQSKKNNKNWIWKKSSGKEGGLQKEYANTIGLPPRTQSLCLVVCLDEKGKKTQELKNIRTNSELLKEWIIAAFHEGKNLKPSHEKKNDDNGKKLCKALEYSFADYGDLIKGTSIWDNEYTKDLELNLQKIFGKLFRKYIKKNNTAEQDTSYSSLDELRESWWNTNKKYIWLAMKHGAGMNSTTCCGDGSVTGSGSSCDDIPTIDLIPQYLRFLQEWVEHFCKQRQEKVKPVIENCKSCKESGGTCNGECKTECKNKCEVYKKFIEDCKGGDGTAGSSWVKRWDQIYKRYSKYIEDAKRNRKAGTKNCGPSSTTNAAENKCVQSDIDSFFKHLIDIGLTTPSSYLSIVLDDNICGADKAPWTTYTTYTTTEKCNKETDKSKLQQCNTAVVVNVPSPLGNTPHGYKY
notes: The 3D7 forward primer begins at LSFILN; not shown: C-terminal V5 and His tag of the modified pAcGP67-A vector
B2: VAR2CSA ID1-ID2a, 3D7 (Baculo) (other)
chain: NYIKGDPYFAEYATKLSFILNSSDANNPSEKIQKNNDEVCNCNESGIASVEQEQISDPSSNKTCITHSSIKANKKKVCKHVKLGVRENDKDLRVCVIEHTSLSGVENCCCQDFLRILQENCSDNKSGSSSNGSCNNKNQEACEKNLEKVLASLTNCYKCDKCKSEQSKKNNKNWIWKKSSGKEGGLQKEYANTIGLPPRTQSLCLVVCLDEKGKKTQELKNIRTNSELLKEWIIAAFHEGKNLKPSHEKKNDDNGKKLCKALEYSFADYGDLIKGTSIWDNEYTKDLELNLQKIFGKLFRKYIKKNNTAEQDTSYSSLDELRESWWNTNKKYIWLAMKHGAGMNSTTCCGDGSVTGSGSSCDDIPTIDLIPQYLRFLQEWVEHFCKQRQEKVKPVIENCKSCKESGGTCNGECKTECKNKCEVYKKFIEDCKGGDGTAGSSWVKRWDQIYKRYSKYIEDAKRNRKAGTKNCGPSSTTNAAENKCVQSDIDSFFKHLIDIGLTTPSSYLSIVLDDNICGADKAPWTTYTTYTTTEKCNKETDKSKLQQCNTAVVVNVPSPLGNTPHGYKYACQCKIPTNEETCDDRKEYMNQWSCGSARTMKRGYKNDNYELCKYNGVDVKPTTVRSNSSKLD
notes: not shown: C-terminal V5 and His tag of the modified pAcGP67-A vector
B3: VAR2CSA ID1-DBL2Xa, 3D7 (Baculo) (other)
chain: LSFILNSSDANNPSEKIQKNNDEVCNCNESGIASVEQEQISDPSSNKTCITHSSIKANKKKVCKHVKLGVRENDKDLRVCVIEHTSLSGVENCCCQDFLRILQENCSDNKSGSSSNGSCNNKNQEACEKNLEKVLASLTNCYKCDKCKSEQSKKNNKNWIWKKSSGKEGGLQKEYANTIGLPPRTQSLCLVVCLDEKGKKTQELKNIRTNSELLKEWIIAAFHEGKNLKPSHEKKNDDNGKKLCKALEYSFADYGDLIKGTSIWDNEYTKDLELNLQKIFGKLFRKYIKKNNTAEQDTSYSSLDELRESWWNTNKKYIWLAMKHGAGMNSTTCCGDGSVTGSGSSCDDIPTIDLIPQYLRFLQEWVEHFCKQRQEKVKPVIENCKSCKESGGTCNGECKTECKNKCEVYKKFIEDCKGGDGTAGSSWVKRWDQIYKRYSKYIEDAKRNRKAGTKNCGPSSTTNAA
notes: as for B2

How the values were obtained:
[1] = target: CSPG (bovine) (D8428, Sigma) (bovine) (UniProt P21793); assay: quartz crystal microbalance (Attana A100), CSPG coated; FCR3 Baculo
[2] = target: CSPG (bovine) (D8428, Sigma) (bovine) (UniProt P21793); assay: quartz crystal microbalance (Attana A100), CSPG coated; 3D7 Baculo
[3] = target: T1, CSPG (bovine) (D8428, Sigma) (bovine, UniProt P21793 31-360, carries chondroitin sulfate A (CSA) glycosaminoglycan chain(s); attachment site not stated); assay: as above
T1 construct: Commercial proteoglycan coated on the chip or plate; also called chondroitin sulfate proteoglycan; CSA proteoglycan (CSPG)

[4] = target: T1, CSPG (bovine) (D8428, Sigma); assay: quartz crystal microbalance (Attana A100), CSPG coated
Experimental: All buffers and reagents were filtered to 0.2 μm. The ligand was CSPG (Bovine) (D8428, Sigma) or HSPG (H4777, Sigma), coated at a concentration of 100 μg/ml. Coating was done in steady state by adding ligand solution and incubation 30 minutes at room temperature. This was followed by blocking the plate with PBS containing 0.1% Ig-free BSA (BSA-50, Rockland), 30 minutes at room temperature. The Attana A100 was washed with 1% SDS prior to every experiment, using the manufacturers predefined daily wash program. Following the wash, the running buffer was switched to PBS at a flow rate of 25 μL/min, at 25° C., and the machine was allowed to stabilize at a maximum change in frequency of 0.5 Hz/min. […] Prior to sample injection PBS was injected as a blank. Analyte was injected in a 1:3 dilution series (0.25 μg/ml-60 μg/ml) starting with the lowest concentration. Association time was set to 84 seconds and disassociation time to 5 minutes. […] The data collected was processed in the Attester Evaluation software (Attana AB). Curves were fitted in a simple 1:1 model. kₒₙ and koff were determined by curve fitting and KD was calculated based KD=koff/kₒₙ.

T1 sequence (P21793 31-360): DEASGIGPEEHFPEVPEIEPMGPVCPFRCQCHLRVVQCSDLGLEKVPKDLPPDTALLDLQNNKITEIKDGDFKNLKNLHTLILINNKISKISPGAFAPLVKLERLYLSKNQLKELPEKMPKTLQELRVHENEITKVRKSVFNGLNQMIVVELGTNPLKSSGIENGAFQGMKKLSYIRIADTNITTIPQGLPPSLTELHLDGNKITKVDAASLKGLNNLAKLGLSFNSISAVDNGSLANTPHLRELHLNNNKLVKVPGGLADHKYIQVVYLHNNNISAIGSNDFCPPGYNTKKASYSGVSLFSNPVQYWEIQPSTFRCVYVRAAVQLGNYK
Sequence of CSPG (bovine) (D8428, Sigma) (bovine) (P21793 31-360): as above

Row | Molecule | Kd [1] | further results
1 | VAR2CSA DBL2X-DBL4ε, FCR3 (Baculo) | 2.4 nM | 
2 | VAR2CSA DBL1-ID2b, FCR3 (Baculo) | 1.5 nM | 
3 | VAR2CSA FV2, 3D7 (Baculo) |  | Kd [2]: 8.2 nM
4 | VAR2CSA FV2, FCR3 (Baculo) | 5.2 nM | 
5 | VAR2CSA ID1-DBL4ε, FCR3 (Baculo) | 8.6 nM | 
6 | VAR2CSA ID1-DBL3ε, FCR3 (Baculo) | 0.3 nM | 
7 | B1 |  | Kd [3]: 21.8 nM
8 | B2 |  | Kd [3]: 5.7 nM
9 | B3 |  | binding result [4]: no binding (tested: 0.25 µg/ml-60 µg/ml)
